Assay results taken from article PMC9574498 (The Journal of Biological Chemistry, 2022).

Experiments:
SEC-SAXS = target: the molecule itself; assay: SEC-SAXS
[1] = target: human calmodulin (Ca^2+-CaM; apo-CaM in EDTA) (human, UniProt P0DP23 1-149); assay: SEC

binding result [1]: binds
B1: human P2X7R ballast domain (P2X7BD, residues 395–595) (domain or fragment, UniProt Q99572 395-595, looked up)
chain: KPTLKYVSFVDESHIRMVNQQLLGRSLQDVKGQEVPRPAMDFTDLSRLPLALHDTPPIPGQPEEIQLLRKEATPRSRDSPVWCQCGSCLPSQLPESHRCLEELCCRKKPGACITTSELFRKLVLSRHVLQFLLLYQEPLLALDVDSTNSRLRHCAYRCYATWRFGSQDMADFAILPSCCRWRIRKEFPKSEGQYSGFKSPY
stoichiometry N (SEC-SAXS): 3
